Two molecules from paper PMC10558373, “[^68Ga]Ga-NODAGA-E[(cRGDyK)]2 angiogenesis PET following myocardial infarction in an experimental rat model predicts cardiac functional parameters and development of heart failure” (Journal of Nuclear Cardiology, 2023) can be followed below.

In experiment [1] the target is integrin αvβ3 (UniProt P06756). Nature of the experiment: SPR; Biacore X100, CM5 chip, integrin αvβ3 amine-coupled (~4200 RU), single cycle kinetics; running buffer Tris-HCl 20 mM, NaCl 150 mM, P20 0.05%, MgCl2 1 mM, pH 7.4; kinetic fit, steady state fit for fibronectin.
In experiment [2] the target is integrin αvβ3 (UniProt P06756). Nature of the experiment: SPR; Biacore X100, CM5 chip, integrin αvβ3 amine-coupled (~4200 RU), single cycle kinetics; running buffer Tris-HCl 20 mM, NaCl 150 mM, P20 0.05%, MgCl2 1 mM and MnCl2 1 mM, pH 7.4; kinetic fit, steady state fit for fibronectin.
Experiment [3] concerns the target integrin αvβ3 (UniProt P06756 31-1048; P05106 27-788). Nature of the experiment: SPR; Biacore X100, single cycle kinetics, in the presence of Mg2+ and Mn2+. To be noted: both partners purified.
For experiment [4], the target named is integrin αvβ3 (UniProt P06756). Nature of the experiment: SPR; Biacore X100, CM5 chip, integrin αvβ3 amine-coupled (~4200 RU), single cycle kinetics; running buffer Tris-HCl 20 mM, NaCl 150 mM, P20 0.05%, MgCl2 1 mM, pH 7.4; kinetic fit, steady state fit for fibronectin. This is another data set of the same source.
Experiment [5] has as its target T1, integrin αvβ3 (UniProt P06756 31-1048; P05106 27-788).
T1 chain 1: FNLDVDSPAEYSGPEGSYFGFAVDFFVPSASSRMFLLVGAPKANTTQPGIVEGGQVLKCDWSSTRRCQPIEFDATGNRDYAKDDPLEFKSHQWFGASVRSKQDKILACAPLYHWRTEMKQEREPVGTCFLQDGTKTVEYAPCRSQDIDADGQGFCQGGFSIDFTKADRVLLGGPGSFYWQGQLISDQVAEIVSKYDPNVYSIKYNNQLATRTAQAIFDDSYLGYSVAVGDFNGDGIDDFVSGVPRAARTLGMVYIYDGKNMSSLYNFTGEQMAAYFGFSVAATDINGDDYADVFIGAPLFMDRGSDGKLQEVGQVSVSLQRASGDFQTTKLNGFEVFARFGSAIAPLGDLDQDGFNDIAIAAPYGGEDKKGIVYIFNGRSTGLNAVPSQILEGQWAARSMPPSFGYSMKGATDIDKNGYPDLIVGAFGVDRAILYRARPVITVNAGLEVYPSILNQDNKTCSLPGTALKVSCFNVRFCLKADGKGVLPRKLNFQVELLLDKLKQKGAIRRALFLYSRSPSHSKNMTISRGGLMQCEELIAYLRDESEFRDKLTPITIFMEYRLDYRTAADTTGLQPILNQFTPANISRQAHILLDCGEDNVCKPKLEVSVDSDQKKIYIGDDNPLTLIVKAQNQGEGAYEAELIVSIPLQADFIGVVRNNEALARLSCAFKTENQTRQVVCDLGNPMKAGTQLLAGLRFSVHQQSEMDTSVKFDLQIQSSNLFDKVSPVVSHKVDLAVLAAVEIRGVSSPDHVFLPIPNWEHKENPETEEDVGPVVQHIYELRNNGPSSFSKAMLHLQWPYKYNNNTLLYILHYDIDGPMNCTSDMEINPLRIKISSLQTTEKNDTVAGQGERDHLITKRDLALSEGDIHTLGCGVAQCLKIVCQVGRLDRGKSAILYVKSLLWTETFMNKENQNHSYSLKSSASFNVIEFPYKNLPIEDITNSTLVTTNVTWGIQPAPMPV
T1 chain 2: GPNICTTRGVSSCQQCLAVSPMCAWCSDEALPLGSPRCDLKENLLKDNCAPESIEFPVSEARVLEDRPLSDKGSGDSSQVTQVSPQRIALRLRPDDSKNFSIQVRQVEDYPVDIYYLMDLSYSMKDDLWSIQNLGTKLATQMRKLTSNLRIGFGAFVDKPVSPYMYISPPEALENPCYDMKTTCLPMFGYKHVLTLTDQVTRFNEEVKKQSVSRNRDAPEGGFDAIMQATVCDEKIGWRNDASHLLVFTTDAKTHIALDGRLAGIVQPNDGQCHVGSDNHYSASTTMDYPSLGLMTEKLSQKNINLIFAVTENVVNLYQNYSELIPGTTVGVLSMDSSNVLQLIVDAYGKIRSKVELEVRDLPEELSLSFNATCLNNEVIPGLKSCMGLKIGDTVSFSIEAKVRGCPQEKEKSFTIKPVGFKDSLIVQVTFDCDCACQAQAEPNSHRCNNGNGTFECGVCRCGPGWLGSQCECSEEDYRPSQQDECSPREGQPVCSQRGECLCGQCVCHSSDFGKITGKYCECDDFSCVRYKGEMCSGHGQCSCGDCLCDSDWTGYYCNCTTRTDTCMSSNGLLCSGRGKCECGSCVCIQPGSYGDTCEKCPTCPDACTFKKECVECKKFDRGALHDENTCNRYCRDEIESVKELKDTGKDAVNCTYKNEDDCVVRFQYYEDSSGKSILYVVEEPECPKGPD
Put plainly: SPR; Mg2+ + Mn2+.

Experiment [6] has as its target T1, integrin αvβ3. Nature of the experiment: SPR; Mg2+.
Experiment [7] concerns the target integrin αvβ3 (UniProt P06756). Put plainly: SPR; Biacore X100, CM5 chip, integrin αvβ3 amine-coupled (~4200 RU), single cycle kinetics; running buffer Tris-HCl 20 mM, NaCl 150 mM, P20 0.05%, MgCl2 1 mM and MnCl2 1 mM, pH 7.4; kinetic fit, steady state fit for fibronectin. The source holds these as a separate data set.
Experiment [8] addresses T1, integrin αvβ3. Put plainly: SPR; Mg2+ + Mn2+.
In experiment [9] the target is T1, integrin αvβ3. Nature of the experiment: SPR; Mg2+.

[ ]: non-standard residue; d: D form.

As to “vitronectin (from UniProt P04004 20-478) (ligand)”, in the experiment with integrin αvβ3 [1], the Kd was 1.3 nM, the koff was 0.00021 s⁻¹ and the association rate constant (kon) stood at 32000 M⁻¹ s⁻¹. In the experiment with integrin αvβ3 [2], this molecule returned a Kd of 24 nM, a koff of 0.00032 s⁻¹ and a kon of 13000 M⁻¹ s⁻¹.

B1: [^68Ga]Ga-NODAGA-E[(cRGDyK)]2 (peptide)
chain: cyclo(RGD[dY]K)
modifications: also: dimer of two cyclic peptides on a Glu linker, NODAGA chelator with 68Ga
For the molecule B1, the “fold stronger binding than vitronectin” value with integrin αvβ3 [3] is 1000 fold. Besides, the Kd stood at 0.075 nM with integrin αvβ3 [4], 0.075 nM with integrin αvβ3 [6], 0.00071 nM with integrin αvβ3 [7] and 0.00071 nM with integrin αvβ3 [8]. Also, the off-rate constant (koff) with integrin αvβ3 [4] worked out at 7e-05 s⁻¹; in the experiment with integrin αvβ3 [5] it was 2.5e-07 s⁻¹; with integrin αvβ3 [7], 2.5e-07 s⁻¹; with integrin αvβ3 [9] it was 7e-05 s⁻¹. In addition, the kon in the experiment with integrin αvβ3 [4] was 930000 M⁻¹ s⁻¹; in the experiment with integrin αvβ3 [7] it was 350000 M⁻¹ s⁻¹.
